Results taken from article PMC10954734, “Structure of antiviral drug bulevirtide bound to hepatitis B and D virus receptor protein NTCP” (Nature Communications, 2024).

Experiments:
[1] = system: SVPs from patient ID1 (HBV GtD); experiment: Binding of nanodisc-reconstituted NTCP-eYFP to SVPs of patient ID1 (GtD); conditions: 25–100 nM
Procedure: (§1) The lipids were then mixed with detergent-purified NTCP and incubated at room temperature for 5 min with gentle agitation. Next, membrane scaffold protein (MSP1D1) was added to the mixture and incubated for 20 min at room temperature. […] Bio-Beads were removed by passing through a gravity column (Bio-Rad), and the mixture was briefly spun at 4000 × g at 4 °C to remove excess lipids. […] Peak fractions containing nanodisc-reconstituted NTCP were collected and concentrated.
(§2) Subviral particles (SVPs) were isolated from plasma of two chronic HBV-infected patients by three consecutive ultracentrifugation steps according to published protocols[13]. Briefly, SVP were separated from virions using rate zonal ultracentrifugation through a sucrose density gradient. SVP-containing fractions were pooled and further purified using caesium chloride (CsCl) flotation ultracentrifugation. Pooled SVP-fractions were further purified using a second sucrose density gradient and concentrated by ultrafiltration. […] For fluorescence measurement, 100 μL HBS buffer was added to each well and the fluorescence intensity of eYFP was detected at 485 nm excitation and 535 nm emission on a fluorescence microplate reader (TECAN Life Sciences).

[2] = system: SVPs from patient K826 (HBV GtA); experiment: Binding of nanodisc-reconstituted NTCP-eYFP to SVPs of patient K826 (GtA); conditions: 25–100 nM
Procedure: as §1, §2

B1: NTCP G158R: nanodisc-reconstituted NTCP-eYFP variant carrying the mutation G158R (protein)
chain: MEAHNASAPFNFTLPPNFGKRPTDLALSVILVFMLFFIMLSLGCTMEFSKIKAHLWKPKGLAIALVAQYGIMPLTAFVLGKVFRLKNIEALAILVCGCSPGGNLSNVFSLAMKGDMNLSIVMTTCSTFCALGMMPLLLYIYSRGIYDGDLKDKVPYKRIVISLVLVLIPCTIGIVLKSKRPQYMRYVIKGGMIIILLCSVAVTVLSAINVGKSIMFAMTPLLIATSSLMPFIGFLLGYVLSALFCLNGRCRRTVSMETGCQNVQLCSTILNVAFPPEVIGPLFFFPLLYMIFQLGEGLLLIAIFWCYEKFKTPKDKTKMIYTAATTEETIPGALGNGTYKGEDCSPCTA
modifications: left off: eYFP, C-terminal, kept | rho-1D4, C-terminal, state not stated
For B1, the “binding to GtD SVPs (in words)” value [1] was “abolished binding to the SVPs” and the “binding to GtA SVPs (in words)” value [2] was “abolished binding to the SVPs”.
